The target of the assay is CD3 (antigen of the binding affinity table of Example 1) (UniProt P07766). Briefly: kinetic fit with two-state parameters; method not given.

Numbering of substitutions follows the chain as printed.

For orientation: Kd means the concentration at which binding is half-saturated. Read a low Kd as tighter binding. For orientation: koff means the rate constant with which the complex falls apart. High values mean a short-lived complex, low ones a long-lived complex. For orientation: kon means the rate constant with which the complex forms.

OKT3-chimeric (antibody) returned a Kd of 0.622 nM, a ka2 of 0.0105 s⁻¹, a kd2 of 0.00194 s⁻¹ and a koff of 0.138 s⁻¹. Further, the kon is 3.44e+07 M⁻¹ s⁻¹.

B1: H4L1 (antibody, V domains shown)
VH: QVQLQQSGAEVKKPGASVKMSCKASGYTFTRYTMHWVRQAPGQGLEWIGYINPSRGYTNYNQKFKDRVTLTTDTSISTAYMELSRLRSDDTAVYYCARYYDDHYSLDYWGQGTTLTVSS
VL: DIQMTQSPSSLSASVGDRVTMTCSASSSVSYMNWYQQKPGKAPKRLIYDTSKLASGVPSRFSGSGSGTDFTLTISSLQPEDFATYYCQQWSSNPFTFGSGTKLEINR
B1 yielded a Kd of 7.49 nM, a ka2 of 0.0282 s⁻¹, a kd2 of 0.0023 s⁻¹ and a koff of 0.176 s⁻¹. This molecule also yielded a kon of 1.77e+06 M⁻¹ s⁻¹.

B2: H2L4 (antibody, V domains shown)
VH: B1 VH with K12A, M20V, I48M, V68A, T72R, T74K
VL: B1 VL with M4L, M21I, R45L, L77M
Molecule B2 displayed a Kd of 0.642 nM, a ka2 of 0.0234 s⁻¹, a kd2 of 0.000671 s⁻¹ and a koff of 0.0814 s⁻¹. Besides, the kon amounted to 3.54e+06 M⁻¹ s⁻¹.

B3: H4L4 (antibody, V domains shown)
VH: B1 VH
VL: B1 VL with M4L, M21I, R45L, L77M
B3 had a Kd of 13.9 nM, a ka2 of 0.0212 s⁻¹, a kd2 of 0.0023 s⁻¹ and a dissociation rate constant (koff) of 0.248 s⁻¹. The kon was 1.75e+06 M⁻¹ s⁻¹.

B4: H3L4 (antibody, V domains shown)
VH: B1 VH with Q5V, V68A, L70M, T74K
VL: B1 VL with M4L, M21I, R45L, L77M
The molecule B4 returned an equilibrium dissociation constant (Kd) of 1.33 nM, a ka2 of 0.0213 s⁻¹, a kd2 of 0.000744 s⁻¹ and a koff of 0.119 s⁻¹. Besides, the kon was 3.03e+06 M⁻¹ s⁻¹.

B5: H2L2 (antibody, V domains shown)
VH: B1 VH with K12A, M20V, I48M, V68A, T72R, T74K
VL: B1 VL with R45L, L77M
B5 came in with a Kd of 0.892 nM, a ka2 of 0.0268 s⁻¹, a kd2 of 0.000814 s⁻¹ and a koff of 0.0986 s⁻¹. Further, the kon is 3.26e+06 M⁻¹ s⁻¹.

B6: H4L2 (antibody, V domains shown)
VH: B1 VH
VL: B1 VL with R45L, L77M
In the case of B6, the Kd is 15.3 nM, the ka2 came to 0.026 s⁻¹, the kd2 amounted to 0.00294 s⁻¹ and the koff turned out to be 0.217 s⁻¹. Further, the kon was determined as 1.44e+06 M⁻¹ s⁻¹.

B7: H3L3 (antibody, V domains shown)
VH: B1 VH with Q5V, V68A, L70M, T74K
VL: B1 VL with M4L, M21I, R45L, F70Y
B7: the Kd was determined as 1.38 nM, the ka2 turned out to be 0.0191 s⁻¹, the kd2 is 0.000815 s⁻¹ and the koff amounted to 0.402 s⁻¹. Further, the kon turned out to be 1.19e+07 M⁻¹ s⁻¹.

B8: H3L1 (antibody, V domains shown)
VH: B1 VH with Q5V, V68A, L70M, T74K
VL: B1 VL
B8: the Kd was found to be 1.16 nM, the ka2 was 0.0229 s⁻¹, the kd2 worked out at 0.000831 s⁻¹ and the koff is 0.155 s⁻¹. For the same molecule, the kon stood at 4.67e+06 M⁻¹ s⁻¹.

B9: H3L6 (antibody, V domains shown)
VH: B1 VH with Q5V, V68A, L70M, T74K
VL: B1 VL with M21I, R45L, L46W, F70Y
For the molecule B9, the Kd was determined as 8.84 nM, the ka2 is 0.00491 s⁻¹, the kd2 was 0.00243 s⁻¹ and the koff worked out at 0.0814 s⁻¹. Also, the kon was 3.05e+06 M⁻¹ s⁻¹.

B10: H2L3 (antibody, V domains shown)
VH: B1 VH with K12A, M20V, I48M, V68A, T72R, T74K
VL: B1 VL with M4L, M21I, R45L, F70Y
For B10, the Kd is 0.619 nM, the ka2 turned out to be 0.0228 s⁻¹, the kd2 turned out to be 0.000719 s⁻¹ and the koff turned out to be 0.13 s⁻¹. Also, the kon turned out to be 6.42e+06 M⁻¹ s⁻¹.

B11: H2L1 (antibody, V domains shown)
VH: B1 VH with K12A, M20V, I48M, V68A, T72R, T74K
VL: B1 VL
As to B11, the Kd is 0.808 nM, the ka2 stood at 0.026 s⁻¹, the kd2 worked out at 0.000779 s⁻¹ and the koff is 0.0979 s⁻¹. In addition, the kon was 3.52e+06 M⁻¹ s⁻¹.

B12: H3L5 (antibody, V domains shown)
VH: B1 VH with Q5V, V68A, L70M, T74K
VL: B1 VL with M21I, L46W
The molecule B12 gave a Kd of 7.6 nM, a ka2 of 0.00709 s⁻¹, a kd2 of 0.00496 s⁻¹ and a koff of 0.0647 s⁻¹. The molecule also yielded a kon of 3.51e+06 M⁻¹ s⁻¹.

B13: H4L3 (antibody, V domains shown)
VH: B1 VH
VL: B1 VL with M4L, M21I, R45L, F70Y
Regarding B13, the Kd was found to be 14.7 nM, the ka2 was determined as 0.0205 s⁻¹, the kd2 stood at 0.00238 s⁻¹ and the koff worked out at 0.264 s⁻¹. Moreover, the kon came to 1.88e+06 M⁻¹ s⁻¹.

B14: H2L6 (antibody, V domains shown)
VH: B1 VH with K12A, M20V, I48M, V68A, T72R, T74K
VL: B1 VL with M21I, R45L, L46W, F70Y
In turn, B14 had a Kd of 5.68 nM, a ka2 of 0.0101 s⁻¹, a kd2 of 0.00581 s⁻¹ and an off-rate constant (koff) of 0.0638 s⁻¹. This molecule had a kon of 4.1e+06 M⁻¹ s⁻¹.

B15: H4L6 (antibody, V domains shown)
VH: B1 VH
VL: B1 VL with M21I, R45L, L46W, F70Y
B15 showed a Kd of 12.4 nM, a ka2 of 0.00534 s⁻¹, a kd2 of 0.000594 s⁻¹ and a koff of 0.251 s⁻¹. In addition, the kon stood at 2.02e+06 M⁻¹ s⁻¹.

B16: H2L5 (antibody, V domains shown)
VH: B1 VH with K12A, M20V, I48M, V68A, T72R, T74K
VL: B1 VL with M21I, L46W
B16 registered a Kd of 2.55 nM, a ka2 of 0.0127 s⁻¹, a kd2 of 0.00369 s⁻¹ and a koff of 0.0567 s⁻¹. The on-rate constant (kon) was 5.02e+06 M⁻¹ s⁻¹.

B17: H3L2 (antibody, V domains shown)
VH: B1 VH with Q5V, V68A, L70M, T74K
VL: B1 VL with R45L, L77M
With B17, the equilibrium dissociation constant (Kd) turned out to be 1.75 nM, the ka2 worked out at 0.0234 s⁻¹, the kd2 was found to be 0.000939 s⁻¹ and the koff amounted to 0.139 s⁻¹. This molecule also came in with a kon of 3.06e+06 M⁻¹ s⁻¹.

B18: H4L5 (antibody, V domains shown)
VH: B1 VH
VL: B1 VL with M21I, L46W
The molecule B18 registered a Kd of 9.96 nM, a ka2 of 0.0041 s⁻¹, a kd2 of 0.000744 s⁻¹ and a dissociation rate constant (koff) of 0.141 s⁻¹. This molecule had a kon of 2.17e+06 M⁻¹ s⁻¹.

The record behind these values is patent US20230212289A1.
